Biological target: purified recombinant HIS epitope-tagged NOTCH3 extracellular domain (human, UniProt Q9UM47 40-1643, glycosylated)
Assay: SPR

Sequence of purified recombinant HIS epitope-tagged NOTCH3 extracellular domain (Q9UM47 40-1643): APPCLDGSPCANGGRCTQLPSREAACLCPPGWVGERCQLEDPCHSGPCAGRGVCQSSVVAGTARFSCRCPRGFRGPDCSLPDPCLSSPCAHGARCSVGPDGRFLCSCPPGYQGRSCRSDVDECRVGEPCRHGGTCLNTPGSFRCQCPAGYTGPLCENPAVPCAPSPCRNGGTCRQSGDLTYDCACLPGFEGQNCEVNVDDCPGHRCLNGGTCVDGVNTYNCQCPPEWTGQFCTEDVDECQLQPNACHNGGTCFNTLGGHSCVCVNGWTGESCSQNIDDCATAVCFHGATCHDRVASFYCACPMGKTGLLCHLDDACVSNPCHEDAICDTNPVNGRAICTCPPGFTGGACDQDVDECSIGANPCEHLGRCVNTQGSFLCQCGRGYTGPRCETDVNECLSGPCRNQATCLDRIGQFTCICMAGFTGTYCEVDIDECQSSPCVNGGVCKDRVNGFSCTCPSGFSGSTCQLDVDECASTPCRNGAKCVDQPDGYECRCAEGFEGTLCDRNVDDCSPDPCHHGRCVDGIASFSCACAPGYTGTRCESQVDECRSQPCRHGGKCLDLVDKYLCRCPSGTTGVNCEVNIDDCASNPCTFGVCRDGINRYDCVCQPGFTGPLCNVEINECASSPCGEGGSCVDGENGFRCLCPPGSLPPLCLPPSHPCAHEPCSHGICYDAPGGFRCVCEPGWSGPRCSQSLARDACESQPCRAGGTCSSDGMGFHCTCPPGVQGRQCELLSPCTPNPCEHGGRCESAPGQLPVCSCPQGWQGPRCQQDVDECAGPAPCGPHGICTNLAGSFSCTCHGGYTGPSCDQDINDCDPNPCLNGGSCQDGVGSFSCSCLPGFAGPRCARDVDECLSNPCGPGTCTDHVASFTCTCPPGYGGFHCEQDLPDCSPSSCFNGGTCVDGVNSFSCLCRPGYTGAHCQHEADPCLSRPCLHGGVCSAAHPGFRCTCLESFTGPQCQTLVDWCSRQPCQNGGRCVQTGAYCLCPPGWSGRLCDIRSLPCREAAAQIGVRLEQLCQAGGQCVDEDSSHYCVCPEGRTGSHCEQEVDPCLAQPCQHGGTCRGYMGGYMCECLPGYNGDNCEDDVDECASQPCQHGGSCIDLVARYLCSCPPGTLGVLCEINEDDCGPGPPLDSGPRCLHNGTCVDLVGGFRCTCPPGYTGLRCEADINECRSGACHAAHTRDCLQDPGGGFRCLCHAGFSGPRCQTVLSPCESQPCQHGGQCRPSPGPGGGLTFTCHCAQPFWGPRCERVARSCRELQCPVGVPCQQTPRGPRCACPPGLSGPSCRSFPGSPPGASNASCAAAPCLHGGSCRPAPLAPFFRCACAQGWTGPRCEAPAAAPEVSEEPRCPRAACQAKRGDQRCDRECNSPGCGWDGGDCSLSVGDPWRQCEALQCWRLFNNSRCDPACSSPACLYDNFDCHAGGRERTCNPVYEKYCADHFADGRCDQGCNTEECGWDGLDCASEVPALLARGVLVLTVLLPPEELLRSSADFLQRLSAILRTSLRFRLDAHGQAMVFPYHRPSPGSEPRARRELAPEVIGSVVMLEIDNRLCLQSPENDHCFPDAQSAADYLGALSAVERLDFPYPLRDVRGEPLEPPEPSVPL

Row | Kd | Binder
1 | 1180 nM | EKYGGGHFADGR [control peptide (EKYGGGHFADGR)]
2 | 13.1 nM | EKYCADHFADGR [N34 peptide]

— article PMC13193388 (2025)
